Columns and labels:
HeLa Kyoto [1] = assay: thermal stability score vs G1/S (z-score of summed log2 fold changes over temperatures); higher = more thermally stable than in G1/S
HeLa Kyoto [2] = assay: solubility in G1/S (NP-40 vs SDS abundance) (log2 ratio); higher = more soluble; conditions: cell cycle stage: G1/S
HeLa Kyoto [3] = assay: melting temperature (median over replicates), in situ; higher = more thermally stable
HeLa Kyoto [4] = assay: solubility change mitosis vs G1/S (difference of NP-40 vs SDS log2 ratios) (log2 ratio difference); higher = more soluble in mitosis
[5] = cell cycle stage: early G1 (4.5 h after nocodazole release)
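Throughout, for melting temperature (median over replicates), in situ: HeLa Kyoto cells synchronized by double thymidine or nocodazole block, proteins quantified by TMT10plex mass spectrometry, three independent biological replicates.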
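Throughout, for solubility change mitosis vs G1/S (difference of NP-40 vs SDS log2 ratios): synchronized HeLa Kyoto cells (double thymidine block for G1/S, nocodazole release for mitosis), protein amounts in NP-40 versus SDS lysates quantified by mass spectrometry, three biological replicates.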
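Throughout, for solubility in G1/S (NP-40 vs SDS abundance): HeLa Kyoto cells arrested at G1/S by double thymidine block, proteins quantified by TMT10plex mass spectrometry in mild NP-40 versus SDS extracts, three biological replicates.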
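Throughout, for thermal stability score vs G1/S (z-score of summed log2 fold changes over temperatures): synchronized HeLa Kyoto cells, proteins quantified by TMT10plex mass spectrometry, three biological replicates, mitosis taken 0.5 h after nocodazole release, G1/S directly after double thymidine block.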

Sequence	thermal stability score (HeLa Kyoto [1]; [5])	thermal stability score (HeLa Kyoto [1]; cell cycle stage: mitosis)	solubility in G1/S (log2) (HeLa Kyoto [2])	melting temperature (HeLa Kyoto [3]; cell cycle stage: G1/S)	melting temperature (HeLa Kyoto [3]; cell cycle stage: mitosis)	solubility change mitosis (log2) (HeLa Kyoto [4])
MSSKGSVVLAYSGGLDTSCILVWLKEQGYDVIAYLANIGQKEDFEEARKKALKLGAKKVFIEDVSREFVEEFIWPAIQSSALYEDRYLLGTSLARPCIARKQVEIAQREGAKYVSHGATGKGNDQVRFELSCYSLAPQIKVIAPWRMPEFYNRFKGRNDLMEYAKQHGIPIPVTPKNPWSMDENLMHISYEAGILENPKNQAPPGLYTKTQDPAKAPNTPDILEIEFKKGVPVKVTNVKDGTTHQTSLELFMYLNEVAGKHGVGRIDIVENRFIGMKSRGIYETPAGTILYHAHLDIEAFTMDREVRKIKQGLGLKFAELVYTGFWHSPECEFVRHCIAKSQERVEGKVQVSVLKGQVYILGRESPLSLYNEELVSMNVQGDYEPTDATGFININSLRLKEYHRLQSKVTAK [ASS1]	-0.511	-0.833	0.145	54.3 °C	54.1 °C	-0.0958
MSSLIRRVISTAKAPGAIGPYSQAVLVDRTIYISGQIGMDPSSGQLVSGGVAEEAKQALKNMGEILKAAGCDFTNVVKTTVLLADINDFNTVNEIYKQYFKSNFPARAAYQVAALPKGSRIEIEAVAIQGPLTTASL [HRSP12]	-1.03	-1.85	0.213	55.4 °C	55 °C	0.158
MSSPASTPSRRGSRRGRATPAQTPRSEDARSSPSQRRRGEDSTSTGELQPMPTSPGVDLQSPAAQDVLFSSPPQMHSSAIPLDFDVSSPLTYGTPSSRVEGTPRSGVRGTPVRQRPDLGSAQKGLQVDLQSDGAAAEDIVASEQSLGQKLVIWGTDVNVAACKENFQRFLQRFIDPLAKEEENVGIDITEPLYMQRLGEINVIGEPFLNVNCEHIKSFDKNLYRQLISYPQEVIPTFDMAVNEIFFDRYPDSILEHQIQVRPFNALKTKNMRNLNPEDIDQLITISGMVIRTSQLIPEMQEAFFQCQVCAHTTRVEMDRGRIAEPSVCGRCHTTHSMALIHNRSLFSDKQMIKLQESPEDMPAGQTPHTVILFAHNDLVDKVQPGDRVNVTGIYRAVPIRVNPRVSNVKSVYKTHIDVIHYRKTDAKRLHGLDEEAEQKLFSEKRVELLKELSRKPDIYERLASALAPSIYEHEDIKKGILLQLFGGTRKDFSHTGRGKFRAEINILLCGDPGTSKSQLLQYVYNLVPRGQYTSGKGSSAVGLTAYVMKDPETRQLVLQTGALVLSDNGICCIDEFDKMNESTRSVLHEVMEQQTLSIAKAGIICQLNARTSVLAAANPIESQWNPKKTTIENIQLPHTLLSRFDLIFLLLDPQDEAYDRRLAHHLVALYYQSEEQAEEELLDMAVLKDYIAYAHSTIMPRLSEEASQALIEAYVDMRKIGSSRGMVSAYPRQLESLIRLAEAHAKVRLSNKVEAIDVEEAKRLHREALKQSATDPRTGIVDISILTTGMSATSRKRKEELAEALKKLILSKGKTPALKYQQLFEDIRGQSDIAITKDMFEEALRALADDDFLTVTGKTVRLL [MCM4]	0.944	0.88	0.157	50.6 °C	50.4 °C	-0.0425
MSSRKQGSQPRGQQSAEEENFKKPTRSNMQRSKMRGASSGKKTAGPQQKNLEPALPGRWGGRSAENPPSGSVRKTRKNKQKTPGNGDGGSTSEAPQPPRKKRARADPTVESEEAFKNRMEVKVKIPEELKPWLVEDWDLVTRQKQLFQLPAKKNVDAILEEYANCKKSQGNVDNKEYAVNEVVAGIKEYFNVMLGTQLLYKFERPQYAEILLAHPDAPMSQVYGAPHLLRLFVRIGAMLAYTPLDEKSLALLLGYLHDFLKYLAKNSASLFTASDYKVASAEYHRKAL [MORF4L2]	0.948	0.257	0.0399	52.9 °C	52.1 °C	0.484
MSSSGLNSEKVAALIQKLNSDPQFVLAQNVGTTHDLLDICLKRATVQRAQHVFQHAVPQEGKPITNQKSSGRCWIFSCLNVMRLPFMKKLNIEEFEFSQSYLFFWDKVERCYFFLSAFVDTAQRKEPEDGRLVQFLLMNPANDGGQWDMLVNIVEKYGVIPKKCFPESYTTEATRRMNDILNHKMREFCIRLRNLVHSGATKGEISATQDVMMEEIFRVVCICLGNPPETFTWEYRDKDKNYQKIGPITPLEFYREHVKPLFNMEDKICLVNDPRPQHKYNKLYTVEYLSNMVGGRKTLYNNQPIDFLKKMVAASIKDGEAVWFGCDVGKHFNSKLGLSDMNLYDHELVFGVSLKNMNKAERLTFGESLMTHAMTFTAVSEKDDQDGAFTKWRVENSWGEDHGHKGYLCMTDEWFSEYVYEVVVDRKHVPEEVLAVLEQEPIILPAWDPMGALAE [BLMH]	-1.55	-0.29	-0.128	58.1 °C	59 °C	-0.251
MSSSNVEVFIPVSQGNTNGFPATASNDLKAFTEGAVLSFHNICYRVKLKSGFLPCRKPVEKEILSNINGIMKPGLNAILGPTGGGKSSLLDVLAARKDPSGLSGDVLINGAPRPANFKCNSGYVVQDDVVMGTLTVRENLQFSAALRLATTMTNHEKNERINRVIQELGLDKVADSKVGTQFIRGVSGGERKRTSIGMELITDPSILFLDEPTTGLDSSTANAVLLLLKRMSKQGRTIIFSIHQPRYSIFKLFDSLTLLASGRLMFHGPAQEALGYFESAGYHCEAYNNPADFFLDIINGDSTAVALNREEDFKATEIIEPSKQDKPLIEKLAEIYVNSSFYKETKAELHQLSGGEKKKKITVFKEISYTTSFCHQLRWVSKRSFKNLLGNPQASIAQIIVTVVLGLVIGAIYFGLKNDSTGIQNRAGVLFFLTTNQCFSSVSAVELFVVEKKLFIHEYISGYYRVSSYFLGKLLSDLLPMRMLPSIIFTCIVYFMLGLKPKADAFFVMMFTLMMVAYSASSMALAIAAGQSVVSVATLLMTICFVFMMIFSGLLVNLTTIASWLSWLQYFSIPRYGFTALQHNEFLGQNFCPGLNATGNNPCNYATCTGEEYLVKQGIDLSPWGLWKNHVALACMIVIFLTIAYLKLLFLKKYS [ABCG2]	-1.15	-0.412	-0.574	60.7 °C	60.5 °C	-0.0838
MSSSPLSKKRRVSGPDPKPGSNCSPAQSVLSEVPSVPTNGMAKNGSEADIDEGLYSRQLYVLGHEAMKRLQTSSVLVSGLRGLGVEIAKNIILGGVKAVTLHDQGTAQWADLSSQFYLREEDIGKNRAEVSQPRLAELNSYVPVTAYTGPLVEDFLSGFQVVVLTNTPLEDQLRVGEFCHNRGIKLVVADTRGLFGQLFCDFGEEMILTDSNGEQPLSAMVSMVTKDNPGVVTCLDEARHGFESGDFVSFSEVQGMVELNGNQPMEIKVLGPYTFSICDTSNFSDYIRGGIVSQVKVPKKISFKSLVASLAEPDFVVTDFAKFSRPAQLHIGFQALHQFCAQHGRPPRPRNEEDAAELVALAQAVNARALPAVQQNNLDEDLIRKLAYVAAGDLAPINAFIGGLAAQEVMKACSGKFMPIMQWLYFDALECLPEDKEVLTEDKCLQRQNRYDGQVAVFGSDLQEKLGKQKYFLVGAGAIGCELLKNFAMIGLGCGEGGEIIVTDMDTIEKSNLNRQFLFRPWDVTKLKSDTAAAAVRQMNPHIRVTSHQNRVGPDTERIYDDDFFQNLDGVANALDNVDARMYMDRRCVYYRKPLLESGTLGTKGNVQVVIPFLTESYSSSQDPPEKSIPICTLKNFPNAIEHTLQWARDEFEGLFKQPAENVNQYLTDPKFVERTLRLAGTQPLEVLEAVQRSLVLQRPQTWADCVTWACHHWHTQYSNNIRQLLHNFPPDQLTSSGAPFWSGPKRCPHPLTFDVNNPLHLDYVMAAANLFAQTYGLTGSQDRAAVATFLQSVQVPEFTPKSGVKIHVSDQELQSANASVDDSRLEELKATLPSPDKLPGFKMYPIDFEKDDDSNFHMDFIVAASNLRAENYDIPSADRHKSKLIAGKIIPAIATTTAAVVGLVCLELYKVVQGHRQLDSYKNGFLNLALPFFGFSEPLAAPRHQYYNQEWTLWDRFEVQGLQPNGEEMTLKQFLDYFKTEHKLEITMLSQGVSMLYSFFMPAAKLKERLDQPMTEIVSRVSKRKLGRHVRALVLELCCNDESGEDVEVPYVRYTIR [UBA1]	2.94	5.38	0.11	49.5 °C	50 °C	-0.171
MSSTLAKIAEIEAEMARTQKNKATAHHLGLLKARLAKLRRELITPKGGGGGGPGEGFDVAKTGDARIGFVGFPSVGKSTLLSNLAGVYSEVAAYEFTTLTTVPGVIRYKGAKIQLLDLPGIIEGAKDGKGRGRQVIAVARTCNLILIVLDVLKPLGHKKIIENELEGFGIRLNSKPPNIGFKKKDKGGINLTATCPQSELDAETVKSILAEYKIHNADVTLRSDATADDLIDVVEGNRVYIPCIYVLNKIDQISIEELDIIYKVPHCVPISAHHRWNFDDLLEKIWDYLKLVRIYTKPKGQLPDYTSPVVLPYSRTTVEDFCMKIHKNLIKEFKYALVWGLSVKHNPQKVGKDHTLEDEDVIQIVKK [DRG1]	-0.58	-2.04	0.118	53.8 °C	53.4 °C	-0.0219
MSSTQFNKGPSYGLSAEVKNRLLSKYDPQKEAELRTWIEGLTGLSIGPDFQKGLKDGTILCTLMNKLQPGSVPKINRSMQNWHQLENLSNFIKAMVSYGMNPVDLFEANDLFESGNMTQVQVSLLALAGKAKTKGLQSGVDIGVKYSEKQERNFDDATMKAGQCVIGLQMGTNKCASQSGMTAYGTRRHLYDPKNHILPPMDHSTISLQMGTNKCASQVGMTAPGTRRHIYDTKLGTDKCDNSSMSLQMGYTQGANQSGQVFGLGRQIYDPKYCPQGTVADGAPSGTGDCPDPGEVPEYPPYYQEEAGY [CNN2]	1.28	1.97	0.456	48.8 °C	50.3 °C	-0.0021
MSTADALDDENTFKILVATDIHLGFMEKDAVRGNDTFVTLDEILRLAQENEVDFILLGGDLFHENKPSRKTLHTCLELLRKYCMGDRPVQFEILSDQSVNFGFSKFPWVNYQDGNLNISIPVFSIHGNHDDPTGADALCALDILSCAGFVNHFGRSMSVEKIDISPVLLQKGSTKIALYGLGSIPDERLYRMFVNKKVTMLRPKEDENSWFNLFVIHQNRSKHGSTNFIPEQFLDDFIDLVIWGHEHECKIAPTKNEQQLFYISQPGSSVVTSLSPGEAVKKHVGLLRIKGRKMNMHKIPLHTVRQFFMEDIVLANHPDIFNPDNPKVTQAIQSFCLEKIEEMLENAERERLGNSHQPEKPLVRLRVDYSGGFEPFSVLRFSQKFVDRVANPKDIIHFFRHREQKEKTGEEINFGKLITKPSEGTTLRVEDLVKQYFQTAEKNVQLSLLTERGMGEAVQEFVDKEEKDAIEELVKYQLEKTQRFLKERHIDALEDKIDEEVRRFRETRQKNTNEEDDEVREAMTRARALRSQSEESASAFSADDLMSIDLAEQMANDSDDSISAATNKGRGRGRGRRGGRGQNSASRGGSQRGRADTGLETSTRSRNSKTAVSASRNMSIIDAFKSTRQQPSRNVTTKNYSEVIEVDESDVEEDIFPTTSKTDQRWSSTSSSKIMSQSQVSKGVDFESSEDDDDDPFMNTSSLRRNRR [MRE11A]	-0.294	-0.527	-0.0431	51.6 °C	51.2 °C	-0.164
MSTARTENPVIMGLSSQNGQLRGPVKPTGGPGGGGTQTQQQMNQLKNTNTINNGTQQQAQSMTTTIKPGDDWKKTLKLPPKDLRIKTSDVTSTKGNEFEDYCLKRELLMGIFEMGWEKPSPIQEESIPIALSGRDILARAKNGTGKSGAYLIPLLERLDLKKDNIQAMVIVPTRELALQVSQICIQVSKHMGGAKVMATTGGTNLRDDIMRLDDTVHVVIATPGRILDLIKKGVAKVDHVQMIVLDEADKLLSQDFVQIMEDIILTLPKNRQILLYSATFPLSVQKFMNSHLQKPYEINLMEELTLKGVTQYYAYVTERQKVHCLNTLFSRLQINQSIIFCNSSQRVELLAKKISQLGYSCFYIHAKMRQEHRNRVFHDFRNGLCRNLVCTDLFTRGIDIQAVNVVINFDFPKLAETYLHRIGRSGRFGHLGLAINLITYDDRFNLKSIEEQLGTEIKPIPSNIDKSLYVAEYHSEPVEDEKP [DDX6]	0.486	-0.288	-0.136	51.5 °C	51 °C	0.0947

From the supplement of paper PMC5998384
